# System: T1, Nc1ncnc2c1ncn2[C@@H]1O[C@H](COP(=O)(O)OP(=O)(O)OP(=O)(O)O)[C@@H](O)[C@H]1O
# T1 construct: pentameric holocomplex overexpressed in budding yeast from galactose-inducible promoters; His12 tag on Brn1, triple StrepII tag on Smc4; gel-filtered monomeric complexes; with Condensin complex subunit 2; Condensin complex subunit 1; Condensin complex subunit 3
# Assay: single-molecule magnetic tweezers, DNA compaction rate vs ATP, Michaelis-Menten fit
# Format: biochemical, Saccharomyces cerevisiae
# Conditions: 8.6 nM condensin, tethered 20-kb DNA under constant force, 10 mM HEPES-NaOH pH 7.9, 125 mM NaCl, 5 mM MgCl2, 1 mM DTT, error is 95% confidence interval, read-out is compaction rate, not ATP turnover
substance,measurement,value
S. cerevisiae condensin holocomplex (Smc2–Smc4–Brn1–Ycs4–Ycg1) (Saccharomyces cerevisiae S288C),Km,1400 ± 1500 µM
